According to publication PMC10164081 (Structure (London, England : 1993), 2023):
Where no end group is shown, it is not given here.

T1: purified Ric-8A (rat, UniProt Q80ZG1 1-530)
T1 sequence (looked up): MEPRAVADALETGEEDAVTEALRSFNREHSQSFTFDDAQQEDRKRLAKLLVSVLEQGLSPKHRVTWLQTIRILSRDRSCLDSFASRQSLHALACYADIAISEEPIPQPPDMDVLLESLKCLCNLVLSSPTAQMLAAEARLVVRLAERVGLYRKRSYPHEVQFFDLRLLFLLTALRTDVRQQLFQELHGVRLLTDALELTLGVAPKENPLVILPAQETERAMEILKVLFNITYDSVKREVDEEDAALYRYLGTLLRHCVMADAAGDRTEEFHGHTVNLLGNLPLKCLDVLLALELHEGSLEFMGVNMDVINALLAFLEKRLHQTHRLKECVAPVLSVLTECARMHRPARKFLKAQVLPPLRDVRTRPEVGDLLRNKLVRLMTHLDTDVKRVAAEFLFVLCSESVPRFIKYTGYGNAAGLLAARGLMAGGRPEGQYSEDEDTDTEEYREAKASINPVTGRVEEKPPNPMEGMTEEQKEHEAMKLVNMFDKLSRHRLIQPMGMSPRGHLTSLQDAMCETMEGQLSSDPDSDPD


Legend:
[1] = target: Gαolf/i1 SwII chimeric sensor (human); experiment: cell-based or functional assay
[2] = target: Gαolf/13 SwII chimeric sensor (human); experiment: cell-based or functional assay
purified Ric-8A = target: T1, purified Ric-8A; experiment: differential scanning fluorimetry

Binder | folding of the Switch II chimeric Gαolf-RLuc sensor (luminescence) by Ric-8B [1] | folding of the Switch II chimeric Gαolf-RLuc sensor (luminescence) by Ric-8B [2] [% decrease] | maximal thermal shift (ΔTm) (purified Ric-8A) [°C]
phosphorylated Ric-8B (natural protein, mouse, UniProt Q80XE1-1 1-560, looked up, phosphoserine at 468, phosphothreonine at 473, and additional positions (Table S1)) MDEERALYIVRAGEAGAIERVLRDYSDKHRATFKFESADEDKRKKLCEGIFKVLVKEVPTTCQVSCLEVLRILSRDKKILVPVTTKENMQILLRLAKLHESDDSLEKVSEFPVIVESLKCLCNIVFNSQMAQQLSLELNLAAKLCNLLRKCKDRKFINDIKCFDLRLLFVLSLLHTDIRSQLRYELQGLPLLTQILESAFSIKWTDEYESAIDHNGPPLSPQETDCAIEALKALFNVTVDSWKVHKESDSHQFRVMAAVLRHCLLIVGPTEDKTEELHSNAVNLLSNVPVSCLDVLICPLTHEETAQEAATLDELPSDKTTEKDTALKNSTMVYNGMNMEAIHVLLNFMEKRIDKGSSYREGLTPVLSLLTECSRAHRNIRKFLKDQVLPPLRDVTNRPEVGSTVRNKLVRLMTHVDLGVKQIAAEFLFVLCKERVDSLLKYTGYGNAAGLLAARGLLAGGRGDNWYSEDEDTDTEEYKNAKPNINLITGHLEEPMPNPIDEMTEEQKEYEAMKLVNMLDKLSREELLKPMGLKPDGTITPLEEALSQYSVIEETSSDTD | 88 % of Gαolf | 50 | –
RDVKDTILHDNLKQLMLQ-NH2 [Gα13 C-term amidated peptide] | – | – | 3.6
